Data on one molecule can be found in patent US20220168345A1 (published 2022).

This assay addresses T1, NY-ESO-1 peptide on HLA-B*07:02 (human).
T1 peptide: APRGPHGGAASGL
Briefly: multimer staining. From the text:
FIGS. 3A-3I are graphical representations of positive staining of Jurkat 76/CD8 cells transduced with B*07:02/NY-ESO-1₆₀₋₇₂ TCR genes with a cognate multimer. Jurkat 76/CD8 cells transduced with the B*07:02/NY-ESO-1₆₀₋₇₂ TCR (FIGS. 3B, 3E, and 3H) were stained with the B*07:02/NY-ESO-1₆₀₋₇₂ multimer (FIG. 3B). The B*07:02/MAGE-A1₂₈₉₋₂₉₇ multimer (FIGS. 3D, 3E, and 3F), B*07:02/unexchanged multimer (FIGS. 3G, 3H, and 3I), and B*07:02/MAGE-A1₂₈₉₋₂₉₇ TCR (FIGS. 3C, 3F, and 3I) were employed as controls, as well as Jurkat 76/CD8 not transduced with a TCR (FIGS. 3A, 3D, and 3G). The percentage of multimer⁺ CD8⁺ cells is shown.
T cells (1×10⁵) were incubated for 30 minutes at 37° C. in the presence of 50 nM dasatinib (LC laboratories). The cells were then washed and incubated with 5-10 μg/ml of multimer for 30 minutes at room temperature, and R-phycoerythrin-conjugated AffiniPure Fab fragment goat anti-mouse IgG1 (Jackson ImmunoResearch Laboratories) was added for 15 minutes at 4° C. Next, the cells were washed three times and costained with an anti-CD8 mAb for 15 minutes at 4° C. Dead cells were finally discriminated using the LIVE/DEAD Fixable Dead Cell Stain kit.

B1: B*07:02/NY-ESO-1 60-72 TCR (TCR, V domains shown)
Valpha: AQSVTQLDSHVSVSEGTPVLLRCNYSSSYSPSLFWYVQHPNKGLQLLLKYTSAATLVKGINGFEAEFKKSETSFHLTKPSAHMSDAAEYFCVVSFSGNTPLVFGKGTRLSVIA
Vbeta: DTGVSQDPRHKITKRGQNVTFRCDPISEHNRLYWYRQTLGQGPEFLTYFQNEAQLEKSRLLSDRFSAERPKGSFSTLEIQRTEQGDSAMYLCASSSSYSNQPQHFGDGTRLSIL
In the case of B1, the binding result is “recognises”.
